Results as given in US20230257458A1 (SUNSHINE LAKE PHARMA, published 2023).

T1: IL-11 protein (UniProt P20809 22-199, limits assumed)
T1 construct: also called IL-11 antigen
T1 sequence (looked up): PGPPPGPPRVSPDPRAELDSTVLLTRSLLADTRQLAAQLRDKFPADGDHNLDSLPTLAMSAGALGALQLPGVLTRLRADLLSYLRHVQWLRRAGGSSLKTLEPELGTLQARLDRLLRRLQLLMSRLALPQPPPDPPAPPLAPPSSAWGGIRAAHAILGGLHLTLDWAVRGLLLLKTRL


These binders were tested against T1, IL-11 protein (assay: SPR (Biacore), antibody captured, 400 nM IL-11 as analyte).
Protocol: The measure method included the steps of capturing the humanized antibody at a flow rate of 10 ul/min. […] Finally the chip was regenerated with 10 mM glycine buffer.

Binder | Kd [nM] | koff [s⁻¹] | kon [M⁻¹ s⁻¹]
VH1 + VL3-scFv (scFv, V domains shown, Humanized 5-20E11-5F2; CHO supernatant; Called scFv, but heavy and light vectors were co-transfected) VH: QVQLVQSGAEVKKPGASVKVSCKASDYTFTNYWLGWVRQAPGQGLEWMGHIYPGGGYTNYNEKFKGRVTMTRDTSTSTVYMELSSLRSEDTAVYYCARVRSGNDALDFWGQGTLVTVSS VL: EIVLTQSPATLSLSPGERATLSCRASESVDEYGISFMNWFQQKPGQAPRLLIYSASNQGSGIPARFSGSGSGTDFTLTISSLEPEDFAVYFCQQSKEVPWTFGGGTKLEIK | 12.3 | 0.000436 | 35500
VH2 + VL4-scFv (scFv, V domains shown, Humanized 5-20E11-5F2; CHO supernatant; Called scFv, but heavy and light vectors were co-transfected) VH: QVQLVQSGAEVKKPGASVKVSCKASDYTFTNYWLGWVRQAPGQGLEWIGHIYPGGGYTNYNEKFKGRVTMTADTSTSTVYMELSSLRSEDTAVYFCARVRSGNDALDFWGQGTLVTVSS VL: EIVLTQSPATLSLSPGERATLSCRASESVDEYGISFMNWFQQKPGQAPRLLIYSASNQGSGIPARFSGSGSGTDFTLTISSLEPEDFAMYFCQQSKEVPWTFGGGTKLEIK | 10.8 | 0.000528 | 48800
VH1 + VL4-scFv (scFv, V domains shown, Humanized 5-20E11-5F2; CHO supernatant; Called scFv, but heavy and light vectors were co-transfected) VH: QVQLVQSGAEVKKPGASVKVSCKASDYTFTNYWLGWVRQAPGQGLEWMGHIYPGGGYTNYNEKFKGRVTMTRDTSTSTVYMELSSLRSEDTAVYYCARVRSGNDALDFWGQGTLVTVSS VL: EIVLTQSPATLSLSPGERATLSCRASESVDEYGISFMNWFQQKPGQAPRLLIYSASNQGSGIPARFSGSGSGTDFTLTISSLEPEDFAMYFCQQSKEVPWTFGGGTKLEIK | 11.7 | 0.000387 | 33100
VH1 + VL1-scFv (scFv, V domains shown, Humanized 5-20E11-5F2; CHO supernatant; Called scFv, but heavy and light vectors were co-transfected) VH: QVQLVQSGAEVKKPGASVKVSCKASDYTFTNYWLGWVRQAPGQGLEWMGHIYPGGGYTNYNEKFKGRVTMTRDTSTSTVYMELSSLRSEDTAVYYCARVRSGNDALDFWGQGTLVTVSS VL: EIVLTQSPATLSLSPGERATLSCRASESVDEYGISFMNWYQQKPGQAPRLLIYSASNQGSGIPARFSGSGSGTDFTLTISSLEPEDFAVYYCQQSKEVPWTFGGGTKLEIK | 21.6 | 0.000758 | 35100
VH3 + VL1-scFv (scFv, V domains shown, Humanized 5-20E11-5F2; CHO supernatant; Called scFv, but heavy and light vectors were co-transfected) VH: QVQLVQSGAEVKKPGASVKVSCKASDYTFTNYWLGWVRQAPGQGLEWIGHIYPGGGYTNYNEKFKGRATLTADTSTSTVYMELSSLRSEDTAVYFCARVRSGNDALDFWGQGTLVTVSS VL: EIVLTQSPATLSLSPGERATLSCRASESVDEYGISFMNWYQQKPGQAPRLLIYSASNQGSGIPARFSGSGSGTDFTLTISSLEPEDFAVYYCQQSKEVPWTFGGGTKLEIK | 22.5 | 0.001 | 44500

Results, then the binder that gave them:

Kd [nM] | koff [s⁻¹] | kon [M⁻¹ s⁻¹] | Binder
9.76 | 0.000464 | 47600 | VH3 + VL3-scFv (scFv, V domains shown, Humanized 5-20E11-5F2; CHO supernatant; Called scFv, but heavy and light vectors were co-transfected) VH: QVQLVQSGAEVKKPGASVKVSCKASDYTFTNYWLGWVRQAPGQGLEWIGHIYPGGGYTNYNEKFKGRATLTADTSTSTVYMELSSLRSEDTAVYFCARVRSGNDALDFWGQGTLVTVSS VL: EIVLTQSPATLSLSPGERATLSCRASESVDEYGISFMNWFQQKPGQAPRLLIYSASNQGSGIPARFSGSGSGTDFTLTISSLEPEDFAVYFCQQSKEVPWTFGGGTKLEIK
13.3 | 0.000556 | 41800 | VH3 + VL4-scFv (scFv, V domains shown, Humanized 5-20E11-5F2; CHO supernatant; Called scFv, but heavy and light vectors were co-transfected) VH: QVQLVQSGAEVKKPGASVKVSCKASDYTFTNYWLGWVRQAPGQGLEWIGHIYPGGGYTNYNEKFKGRATLTADTSTSTVYMELSSLRSEDTAVYFCARVRSGNDALDFWGQGTLVTVSS VL: EIVLTQSPATLSLSPGERATLSCRASESVDEYGISFMNWFQQKPGQAPRLLIYSASNQGSGIPARFSGSGSGTDFTLTISSLEPEDFAMYFCQQSKEVPWTFGGGTKLEIK
17.2 | 0.00084 | 48900 | VH4 + VL1-scFv (scFv, V domains shown, Humanized 5-20E11-5F2; CHO supernatant; Called scFv, but heavy and light vectors were co-transfected) VH: QVQLVQSGAEVKKPGASVKVSCKASDYTFTNYWLGWVRQAPGHGLEWIGHIYPGGGYTNYNEKFKGRATLTADTSTSTVYMELSSLRSEDTAVYFCARVRSGNDALDFWGQGTLVTVSS VL: EIVLTQSPATLSLSPGERATLSCRASESVDEYGISFMNWYQQKPGQAPRLLIYSASNQGSGIPARFSGSGSGTDFTLTISSLEPEDFAVYYCQQSKEVPWTFGGGTKLEIK
14.6 | 0.00068 | 46500 | VH3 + VL2-scFv (scFv, V domains shown, Humanized 5-20E11-5F2; CHO supernatant; Called scFv, but heavy and light vectors were co-transfected) VH: QVQLVQSGAEVKKPGASVKVSCKASDYTFTNYWLGWVRQAPGQGLEWIGHIYPGGGYTNYNEKFKGRATLTADTSTSTVYMELSSLRSEDTAVYFCARVRSGNDALDFWGQGTLVTVSS VL: EIVLTQSPATLSLSPGERATLSCRASESVDEYGISFMNWYQQKPGQAPRLLIYSASNQGSGIPARFSGSGSGTDFTLTISSLEPEDFAVYFCQQSKEVPWTFGGGTKLEIK
11.2 | 0.000516 | 46100 | VH4 + VL3-scFv (scFv, V domains shown, Humanized 5-20E11-5F2; CHO supernatant; Called scFv, but heavy and light vectors were co-transfected) VH: QVQLVQSGAEVKKPGASVKVSCKASDYTFTNYWLGWVRQAPGHGLEWIGHIYPGGGYTNYNEKFKGRATLTADTSTSTVYMELSSLRSEDTAVYFCARVRSGNDALDFWGQGTLVTVSS VL: EIVLTQSPATLSLSPGERATLSCRASESVDEYGISFMNWFQQKPGQAPRLLIYSASNQGSGIPARFSGSGSGTDFTLTISSLEPEDFAVYFCQQSKEVPWTFGGGTKLEIK
